Assay results: US20160047810A1 (INSTITUT PASTEUR, published 2016)
Positions count from the first letter of the chain named.

B1: FtsZ (purified, from pET11a-ftsZ) (other)
chain: MFEPMELTNDAVIKVIGVGGGGGNAVEHMVRERIEGVEFFAVNTDAQALRKTAVGQTIQIGSGITKGLGAGANPEVGRNAADEDRDALRAALEGADMVFIAAGMGGGTGTGAAPVVAEVAKDLGILTVAVVTKPFNFEGKKRMAFAEQGITELSKHVDSLITIPNDKLLKVLGRGISLLDAFGAANDVLKGAVQGIAELITRPGLMNVDFADVRTVMSEMGYAMMGSGVASGEDRAEEAAEMAISSPLLEDIDLSGARGVLVNITAGFDLRLDEFETVGNTIRAFASDNATVVIGTSLDPDMNDELRVTVVATGIGMDKRPEITLVTNKQVQQPVMDRYQQHGMAPLTQEQKPVAKVVNDNAPQTAKEPDYLDIPAFLRKQAD
notes: Used as GTP-induced polymers in the proteolysis assays; also called FtsZ polymers; Z-ring
B2: E. coli K12 Lop1Δ1-59-H6 (protein)
chain: WGKREDTKHTPVRGLYMWGGVGRGKTWLMDLFYQSLPGERKQRLHFHRFMLRVHEELTALQGQTDPLEIIADRFKAETDVLCFDEFFVSDITDAMLLGGLMKALFARGITLVATSNIPPDELYRNGLQRARFLPAIDAIKQHCDVMNVDAGVDYRLRTLTQAHLWLSPLHDETRAQMDKLWLALAGGKRENSPTLEINHRPLATMGVENQTLAVSFTTLCVDARSQHDYIALSRLFHTVMLFDVPVMTRLMESEARRFIALVDEFYERHVKLVVSAEVPLYEIYQGDRLKFEFQRCLSRLQEMQSEEYLKREHLAG
B3: E. coli K12 Lop1-H6 (protein)
chain: MQSVTPTSQYLKALNEGSHQPDDVQKEAVSRLEIIYQELINSTPPAPRTSGLMARVGKLWGKREDTKHTPVRGLYMWGGVGRGKTWLMDLFYQSLPGERKQRLHFHRFMLRVHEELTALQGQTDPLEIIADRFKAETDVLCFDEFFVSDITDAMLLGGLMKALFARGITLVATSNIPPDELYRNGLQRARFLPAIDAIKQHCDVMNVDAGVDYRLRTLTQAHLWLSPLHDETRAQMDKLWLALAGGKRENSPTLEINHRPLATMGVENQTLAVSFTTLCVDARSQHDYIALSRLFHTVMLFDVPVMTRLMESEARRFIALVDEFYERHVKLVVSAEVPLYEIYQGDRLKFEFQRCLSRLQEMQSEEYLKREHLAG
B4: E. coli K12 Lop1K84A-H6 (protein)
chain: B3 chain with K84A
B5: K12 H6-Lop1Δ1-59Δ303-375 (protein)
chain: WGKREDTKHTPVRGLYMWGGVGRGKTWLMDLFYQSLPGERKQRLHFHRFMLRVHEELTALQGQTDPLEIIADRFKAETDVLCFDEFFVSDITDAMLLGGLMKALFARGITLVATSNIPPDELYRNGLQRARFLPAIDAIKQHCDVMNVDAGVDYRLRTLTQAHLWLSPLHDETRAQMDKLWLALAGGKRENSPTLEINHRPLATMGVENQTLAVSFTTLCVDARSQHDYIALSRLFHTVMLFD

What was measured:
[1] = target: the molecule itself; experiment: self-association, polymerization assay, ultracentrifugation and western blot
[2] = target: T1, FtsZ (purified, from pET11a-ftsZ), P0A9A6
T1 chain: B1 chain

| Protein | FtsZ polymer proteolysis assay (ultracentrifugation, western blot) [2] | also measured |
| --- | --- | --- |
| B1 | – | binding result [1]: binds |
| B2 | incubation of FtsZ polymers with Lop1Δ1-59 in the absence of ATP caused its significant degradation (t=1 min, no FtsZ signal in the soluble fraction) | – |
| B3 | The FtsZ polymers incubation with Lop1 lead to their slight degradation at t=3 min in an ATP-dependent manner | – |
| B4 | no degradation of FtsZ polymers was observed with LOp1 K84A | – |
| B5 | – | FtsZ polymer proteolysis assay (1 min at 30° C., western blot of the pellet) [2]: the 73aa C-terminal fragment of Lop1Δ1-59 was required for the proteolytic degradation of FtsZ polymers |
